Experimental findings from the RNAGym collection of RNA variant scans (doi:10.7554/elife.80360) are described below.

B1: Hairpin Ribozyme (parent)
chain: GUCCUCUUUCACGUGCGCGUGAAAGAGAGAAGUGAACCAGAGAAACACACGUUGUGGUAUAUUACCUGGUA

In the series the parent is B1. As to the kind of experiment: self-cleavage, relative activity (ratio to wild type); higher = more cleavage; co-transcriptional.
For the variant GUCCUCUUUCACGUGCGCGUGAAAGAGAGAAGUGAGCCAGAGAAACACACGUUGUGGUAUAUAACCUGGUA [A36G U63A], the self-cleavage amounted to 0.23.
As to GUCCUCUUUCACGUGCGCGUGAAAGAGAGAAGUGACCCAGAGAAACACACGUUCUGGUAUAUUACCUGGUA [A36C G54C], the self-cleavage came out at 0.327.
For GUCCUCUUUCACGUGCGCGUGAAAGAGAGAAGUGACCCAGAGAAACACACGUUAUGGUAUAUUACCUGGUA [A36C G54A] the value was 0.467; for GUCCUCUUUCACGUGCGCGUGAAAGAGAGAAGUGACCCAGAGAAACACACGUUUUGGUAUAUUACCUGGUA [A36C G54U], 0.33; for GUCCUCUUUCACGUGCGCGUGAAAGAGAGAAGUGACCCAGAGAAACACACGUUGUGGUAUAUUACCUGGUU [A36C A71U], 0.654.
Next, GUCCUCUUUCACGUGCGCGUGAAAGAGAGAAGUGACCCAGAGAAACACACGUUGUGGUAUAUUACCUGGUC [A36C A71C]: 0.975; GUCCUCUUUCACGUGCGCGUGAAAGAGAGAAGUGACACAGAGAAACACACGUUGUGGUAUAUUACCUGGUA [A36C C37A]: 0.185.
Turning to GUCCUCUUUCACGUGCGCGUGAAAGAGAGAAGUGACUCAGAGAAACACACGUUGUGGUAUAUUACCUGGUA [A36C C37U], the self-cleavage came to 0.148.
Next, GUCCUCUUUCACGUGCGCGUGAAAGAGAGAAGUGAGCCAGAGAAACACACAUUGUGGUAUAUUACCUGGUA [A36G G51A]: 0.943.
GUCCUCUUUCACGUGCGCGUGAAAGAGAGAAGUGAGCCAGAGAAACACACGUUGUGGUAUAUUACGUGGUA [A36G C66G]: the self-cleavage turned out to be 0.288.
Regarding GUCCUCUUUCACGUGCGCGUGAAAGAGAGAAGUGACCCAGAGAAACACACAUUGUGGUAUAUUACCUGGUA [A36C G51A], the self-cleavage was determined as 0.799.
Consider GUCCUCUUUCACGUGCGCGUGAAAGAGAGAAGUGAGCCAGAGAAACACGCGUUGUGGUAUAUUACCUGGUA [A36G A49G], for which the self-cleavage was determined as 0.339.
Next, GUCCUCUUUCACGUGCGCGUGAAAGAGAGAAGUGAGCCAGAGAAACACACGUUGUGGUAUAUUACCUAGUA [A36G G68A]: 0.306; GUCCUCUUUCACGUGCGCGUGAAAGAGAGAAGUGAGCCAGAGAAACACACGUUGUGGUAUAUUACCUUGUA [A36G G68U]: 0.237; GUCCUCUUUCACGUGCGCGUGAAAGAGAGAAGUGAGACAGAGAAACACACGUUGUGGUAUAUUACCUGGUA [A36G C37A]: 0.297.
Next, GUCCUCUUUCACGUGCGCGUGAAAGAGAGAAGUGACCCAGAGAAACACACGUUGUGGUAUCUUACCUGGUA [A36C A61C]: 0.116; GUCCUCUUUCACGUGCGCGUGAAAGAGAGAAGUGAGCCAGAGAUACACACGUUGUGGUAUAUUACCUGGUA [A36G A44U]: 0.0711; GUCCUCUUUCACGUGCGCGUGAAAGAGAGAAGUGAGCCAGAGAAACACACGUUGAGGUAUAUUACCUGGUA [A36G U55A]: 0.301.
On to GUCCUCUUUCACGUGCGCGUGAAAGAGAGAAGUGAGCCAGAGAAACACACGUUGUGGUAUAUUACCUGGUU [A36G A71U], for which the self-cleavage came out at 1.04.
GUCCUCUUUCACGUGCGCGUGAAAGAGAGAAGUGACCCAGAGAAACACACGUUGUGGUAUAUUACAUGGUA [A36C C66A]: the self-cleavage was 0.268.
For the variant GUCCUCUUUCACGUGCGCGUGAAAGAGAGAAGUGACCCAGAGAAACACACGUUGUGGUAUAUUAUCUGGUA [A36C C65U], the self-cleavage is 0.118.
Turning to GUCCUCUUUCACGUGCGCGUGAAAGAGAGAAGUGACCCAGAGAAACACACGUUGCGGUAUAUUACCUGGUA [A36C U55C], the self-cleavage was found to be 0.0703.
Next, GUCCUCUUUCACGUGCGCGUGAAAGAGAGAAGUGACCCAGAGAAACACACGUUGUGGUAUAUUACCUGGAA [A36C U70A]: 0.958; GUCCUCUUUCACGUGCGCGUGAAAGAGAGAAGUGAGCCAGAGAAACACACGUUGUGCUAUAUUACCUGGUA [A36G G57C]: 0.124; GUCCUCUUUCACGUGCGCGUGAAAGAGAGAAGUGAGCCAGAGAAACACACGUUGUGAUAUAUUACCUGGUA [A36G G57A]: 0.148.
GUCCUCUUUCACGUGCGCGUGAAAGAGAGAAGUGAGCCACAGAAACACACGUUGUGGUAUAUUACCUGGUA [A36G G40C]: the self-cleavage was 0.122.
As for GUCCUCUUUCACGUGCGCGUGAAAGAGAGAAGUGACCCAGAGAAACACACGUUGUGGUAUAUUACCAGGUA [A36C U67A], the self-cleavage turned out to be 0.174.
Turning to GUCCUCUUUCACGUGCGCGUGAAAGAGAGAAGUGACCCAGAGAAACACACGUUGUGGUAUAUUACCCGGUA [A36C U67C], the self-cleavage was 0.102.
Regarding GUCCUCUUUCACGUGCGCGUGAAAGAGAGAAGUGACCCAGAGAAACACACGUUGUGGUAUAUUACCGGGUA [A36C U67G], the self-cleavage came to 0.175.
As to GUCCUCUUUCACGUGCGCGUGAAAGAGAGAAGUGAGCCAGAGAAACACACGUUGUGGUAUAUUUCCUGGUA [A36G A64U], the self-cleavage came out at 0.138.
GUCCUCUUUCACGUGCGCGUGAAAGAGAGAAGUGAGCCAGAGAAACACACGUUGUGGUAUAUUGCCUGGUA [A36G A64G]: the self-cleavage was 0.492.
Regarding GUCCUCUUUCACGUGCGCGUGAAAGAGAGAAGUGACCCAGAGAAACACACGUUGUGGGAUAUUACCUGGUA [A36C U58G], the self-cleavage was determined as 0.595.
Next, GUCCUCUUUCACGUGCGCGUGAAAGAGAGAAGUGAGCCGGAGAAACACACGUUGUGGUAUAUUACCUGGUA [A36G A39G]: 0.513; GUCCUCUUUCACGUGCGCGUGAAAGAGAGAAGUGAGCCUGAGAAACACACGUUGUGGUAUAUUACCUGGUA [A36G A39U]: 0.517.
For the variant GUCCUCUUUCACGUGCGCGUGAAAGAGAGAAGUGAGCCAGAGAAACACACGUUGUGGUAUGUUACCUGGUA [A36G A61G], the self-cleavage was 0.154.
With GUCCUCUUUCACGUGCGCGUGAAAGAGAGAAGUGAGCCAGAGAAACACACGUUGUGGUAUUUUACCUGGUA [A36G A61U], the self-cleavage came out at 0.205.
In the case of GUCCUCUUUCACGUGCGCGUGAAAGAGAGAAGUGAGCCAGAGAAACACACGUUAUGGUAUAUUACCUGGUA [A36G G54A], the self-cleavage stood at 0.715.
Next, GUCCUCUUUCACGUGCGCGUGAAAGAGAGAAGUGAGCCAGAGAAACACACGUUCUGGUAUAUUACCUGGUA [A36G G54C]: 0.544.
